In the Human Domainome abundance scans (Beltran et al. 2025):

B1: Tudor domain-containing protein 3, residues 554 to 611; numbered along this chain, Q9H7E2 (parent)
chain: KMWKPGDECFALYWEDNKFYRAEVEALHSSGMTAVVKFIDYGNYEEVLLSNIKPIQTE
B2: Far upstream element-binding protein 1, residues 184 to 257; numbered along this chain, Q96AE4 (parent)
chain: GNAVQEIMIPASKAGLVIGKGGETIKQLQERAGVKMVMIQDGPQNTGADKPLRITGDPYKVQQAKEMVLELIRD

Variants of: B1
Test: abundance fitness (aPCA) (normalised: wild type 0, dead -1); higher = more abundant; growth selection in yeast, the domain comes from the species named
Conditions: Homo sapiens

Abundance fitness, by site and new letter:
K4: Y -0.17
V24: H -0.847
T33: G -0.444
P54: Y -0.565

Variants of: B2
Test: as above
Conditions: Homo sapiens

Abundance fitness: each site, then its substitutions
E66: R -0.081; M -0.08; P -0.476; H -0.165; F -0.18; T -0.03; A -0.091; Q -0.07; D -0.002; W -0.167; L -0.092; K -0.007; N -0.048; I -0.224; V -0.072; C -0.106; G -0.046
L69: K -0.028; Q 0.003; T -0.021; A -0.01; V -0.082; D 0.016; R 0.011; Y 0.008; P -0.346; I -0.102; G -0.018; F -0.077; M 0.068; N 0.019; S -0.015; E 0.011; H -0.073
P58: N -0.139; S -0.064; H -0.003; V -0.031; C -0.1; Q -0.079; G -0.034; Y -0.022; R 0; W -0.044; L -0.068; T -0.002; M -0.014; K -0.016; E -0.004; A -0.012
K60: D -0.164; T -0.278; W -0.314; M -0.118; C 0.002; Q -0.037; R -0.052; H -0.01; P -0.179; F -0.277; A -0.036; Y -0.233; E -0.187; V -0.581; G -0.086; N 0.029; L -0.065; I -0.653
R73: F -0.197; H 0.031; K 0.015; Q 0.048; M 0.001; L -0.1; T 0.043; N -0.004; A 0.111; S 0.044; D 0.092; E 0.088; W -0.033; P -0.208; C -0.002; I -0.15; V -0.038
Y59: C -0.003; F -0.003; V -0.024; L 0.026; N 0.047; P 0.015; R 0.032; H 0.044; K 0.036; D 0.057; I 0.046; A 0.011; S 0.006; T 0.047; W 0.021; M -0.043; E 0.009; G 0.029
Q62: K -0.022; E 0.02; H -0.069; M -0.075; C -0.037; W -0.114; Y -0.04; A 0.007; F -0.105; V -0.049; N -0.097; R -0.059; G -0.03; T -0.011
D74: N -0.114; F -0.311; R -0.089; T -0.076; W -0.327; K -0.175; S -0.111; A -0.089; P -0.016; M -0.193; H -0.167; L -0.277; Q -0.059; G 0.008; C -0.128; Y -0.197; E -0.058
A64: C -0.118; G -0.051; M -0.469; E -0.694; L -0.839; F -0.754; Y -0.98; V -0.262; K -0.758; D -0.725; P -0.784; S -0.228; I -0.561; Q -0.695; T -0.296; H -0.967; R -0.853; N -0.772; W -1.2
L71: G -0.282; F -0.078; R -0.087; M -0.031; E -0.089; N -0.242; V -0.01; Q -0.082; H -0.102; A -0.1; K -0.001; Y -0.225; T -0.066; W -0.189; I 0.025; P -0.481; C -0.048; D -0.389; S -0.218
G56: Q -0.962; S -1.02; T -1.12; Y -1.25; W -1.22; N -0.668; L -1.28; P -1.18; E -1.05; D -0.803; R -1.04; F -0.971; H -1.09; V -1.26; I -1.14; K -0.942
Q63: T -0.039; M -0.026; Y -0.027; K 0; C 0.013; S -0.061; D -0.116; V -0.038; E 0.006; I -0.025; R -0.026; N -0.107; H -0.069; G -0.058; F -0.116; P -0.408; A -0.022
I72: W -0.353; A -0.173; H -0.524; R -0.498; F -0.136; Y -0.276; L 0.01; T -0.072; N -0.398; S -0.301; G -0.329; Q -0.24; P -0.394; K -0.405; E -0.295; C 0.045; M -0.009; V 0.011; D -0.408
V61: K -0.847; A -0.22; S -0.427; Q -0.528; E -0.787; I -0.091; H -0.814; F -0.599; L -0.286; R -0.672; P -0.758; D -0.881; T -0.154; N -0.764; G -0.627; M -0.236; W -1.17; C -0.062
K65: R -0.012; D -0.577; L -0.211; W -0.439; S -0.102; T -0.057; F -0.241; Y -0.11; C -0.097; G -0.086; V -0.037; H -0.056; A -0.064; I -0.049; M -0.07; P -0.709; N -0.129
M67: Q -0.067; S -0.078; C -0.187; K -0.111; E -0.082; F -0.117; H -0.078; T -0.116; N -0.073; D -0.075; Y -0.088; P -0.455; V -0.126; G -0.177; I -0.128; R -0.096; L -0.053; A -0.03; W -0.124
V68: Y -0.753; D -0.359; I -0.023; P -0.428; R -0.562; N -0.385; A -0.221; W -0.963; S -0.425; H -0.495; T -0.143; E -0.427; F -0.658; M -0.156; G -0.48; L -0.154; Q -0.441; K -0.41
E70: Q -0.072; N -0.127; A -0.04; K 0.002; S -0.106; M -0.152; D 0.046; G -0.044; Y -0.196; I -0.432; H -0.081; C -0.105; T -0.056; V -0.339; W -0.239; P -0.308; F -0.314; R -0.063; L -0.209
D57: V -0.085; G -0.218; Y -0.208; A -0.017; P -0.018; H -0.022; W -0.387; N -0.083; M -0.138; C -0.093; E 0.019; L -0.119; Q -0.018; F -0.285; T -0.028
